Test results taken from paper PMC11413682.

Columns and labels:
[1] = target: CUL2^ZYG11B (residues 490–728) (human) (UniProt Q9C0D3); experiment: ITC; MicroCal iTC200; peptides (0.5–1 mmol/L) in the syringe, CUL2^ZYG11B(490–728) (0.03 mmol/L) in the cell; 18 injections of 2 μL; repeated 3 times
[2] = target: CUL2^ZYG11B (residues 490–728) (human) (UniProt Q9C0D3); experiment: ITC; SNX11-degron peptide titrated into CUL2^ZYG11B that was pre-incubated with the ORF10 peptide (pre-formed ZYG11B/ORF10 N5 complex)

Chain of CUL2^ZYG11B (residues 490–728) (human) (Q9C0D3 490-728): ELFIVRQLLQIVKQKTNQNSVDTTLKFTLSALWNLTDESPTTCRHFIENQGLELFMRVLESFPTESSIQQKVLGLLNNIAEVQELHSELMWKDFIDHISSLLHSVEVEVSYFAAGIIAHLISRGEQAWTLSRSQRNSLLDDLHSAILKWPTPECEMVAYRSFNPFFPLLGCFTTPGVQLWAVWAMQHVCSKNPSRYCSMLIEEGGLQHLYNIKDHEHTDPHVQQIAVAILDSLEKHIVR

Substance	Kd [1] [µM]	fold lower affinity for CUL2^ZYG11B pre-bound to the ORF10 peptide than for CUL2^ZYG11B alone [2] [fold]
SARS-CoV-2 ORF10 N3 peptide	14.5	–
SARS-CoV-2 ORF10 N4 peptide	5.18	–
SNX11-degron peptide	–	13
